Experimental data as given in patent US20250361268A1, “NOVEL ANTI-INFLAMMATORY PEPTIDE AND USE THEREOF” (NOVACELL TECHNOLOGY INC., priority 2022, published 2025).

T1: FPR1 (UniProt P21462 1-350, limits assumed)
T1 sequence (looked up): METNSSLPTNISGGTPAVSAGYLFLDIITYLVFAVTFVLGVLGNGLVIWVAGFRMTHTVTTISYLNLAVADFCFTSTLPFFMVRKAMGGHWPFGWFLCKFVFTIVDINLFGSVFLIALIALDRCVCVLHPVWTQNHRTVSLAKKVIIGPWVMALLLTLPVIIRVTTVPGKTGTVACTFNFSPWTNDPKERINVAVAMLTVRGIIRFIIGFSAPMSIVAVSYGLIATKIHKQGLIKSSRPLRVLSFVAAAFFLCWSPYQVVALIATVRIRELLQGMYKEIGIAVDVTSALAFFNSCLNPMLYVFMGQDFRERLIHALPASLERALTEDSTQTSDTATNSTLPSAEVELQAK

T2: formyl peptide receptor 2 (FPR2) (UniProt P25090 1-351, limits assumed)
T2 sequence (looked up): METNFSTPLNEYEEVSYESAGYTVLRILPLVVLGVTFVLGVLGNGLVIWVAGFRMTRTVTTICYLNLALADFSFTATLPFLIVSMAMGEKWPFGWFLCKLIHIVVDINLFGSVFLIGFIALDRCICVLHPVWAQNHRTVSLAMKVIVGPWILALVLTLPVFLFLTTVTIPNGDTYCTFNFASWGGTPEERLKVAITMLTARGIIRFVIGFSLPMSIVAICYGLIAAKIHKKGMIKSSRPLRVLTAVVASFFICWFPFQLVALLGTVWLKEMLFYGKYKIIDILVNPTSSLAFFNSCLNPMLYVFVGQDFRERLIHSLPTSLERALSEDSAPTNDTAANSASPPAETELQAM

B1: peptide of SEQ ID NO 87 (peptide)
peptide: MRYWYM
HELM: PEPTIDE1{[CCCC(=O)[*:2]].M.R.Y.W.Y.[dM].[am]}$$$$V2.0
SMILES: CCCC(=O)N[C@@H](CCSC)C(=O)N[C@@H](CCCNC(=N)N)C(=O)N[C@@H](Cc1ccc(O)cc1)C(=O)N[C@@H](Cc1c[nH]c2ccccc12)C(=O)N[C@@H](Cc1ccc(O)cc1)C(=O)N[C@H](CCSC)C(N)=O
B2: peptide of SEQ ID NO 89 (peptide)
peptide: MKYWYM
HELM: PEPTIDE1{M.K.Y.W.Y.[dM].[am]}$$$$V2.0; N-terminus assumed
SMILES: CSCC[C@H](N)C(=O)N[C@@H](CCCCN)C(=O)N[C@@H](Cc1ccc(O)cc1)C(=O)N[C@@H](Cc1c[nH]c2ccccc12)C(=O)N[C@@H](Cc1ccc(O)cc1)C(=O)N[C@H](CCSC)C(N)=O
B3: peptide of SEQ ID NO 92 (peptide)
peptide: HMRYWYM
HELM: PEPTIDE1{[ac].H.M.R.Y.W.Y.[dM].[am]}$$$$V2.0
SMILES: CSCC[C@H](NC(=O)[C@H](Cc1c[nH]cn1)NC(C)=O)C(=O)N[C@@H](CCCNC(=N)N)C(=O)N[C@@H](Cc1ccc(O)cc1)C(=O)N[C@@H](Cc1c[nH]c2ccccc12)C(=O)N[C@@H](Cc1ccc(O)cc1)C(=O)N[C@H](CCSC)C(N)=O
B4: peptide of SEQ ID NO 11 (peptide)
peptide: KMKYKVM
HELM: PEPTIDE1{[CCCC(=O)[*:2]].K.M.K.Y.K.V.[dM].[am]}$$$$V2.0
SMILES: CCCC(=O)N[C@@H](CCCCN)C(=O)N[C@@H](CCSC)C(=O)N[C@@H](CCCCN)C(=O)N[C@@H](Cc1ccc(O)cc1)C(=O)N[C@@H](CCCCN)C(=O)N[C@H](C(=O)N[C@H](CCSC)C(N)=O)C(C)C
B5: peptide of SEQ ID NO 13 (peptide)
peptide: MRYKVM
HELM: PEPTIDE1{M.R.Y.K.V.[dM].[am]}$$$$V2.0; N-terminus assumed
SMILES: CSCC[C@H](N)C(=O)N[C@@H](CCCNC(=N)N)C(=O)N[C@@H](Cc1ccc(O)cc1)C(=O)N[C@@H](CCCCN)C(=O)N[C@H](C(=O)N[C@H](CCSC)C(N)=O)C(C)C
B6: peptide of SEQ ID NO 123 (peptide)
peptide: RWRYYYM
HELM: PEPTIDE1{R.W.R.Y.Y.Y.[dM].[am]}$$$$V2.0; N-terminus assumed
SMILES: CSCC[C@@H](NC(=O)[C@H](Cc1ccc(O)cc1)NC(=O)[C@H](Cc1ccc(O)cc1)NC(=O)[C@H](Cc1ccc(O)cc1)NC(=O)[C@H](CCCNC(=N)N)NC(=O)[C@H](Cc1c[nH]c2ccccc12)NC(=O)[C@@H](N)CCCNC(=N)N)C(N)=O
B7: peptide of SEQ ID NO 125 (peptide)
peptide: RMRYYYM
HELM: PEPTIDE1{[ac].R.M.R.Y.Y.Y.[dM].[am]}$$$$V2.0
SMILES: CSCC[C@H](NC(=O)[C@H](CCCNC(=N)N)NC(C)=O)C(=O)N[C@@H](CCCNC(=N)N)C(=O)N[C@@H](Cc1ccc(O)cc1)C(=O)N[C@@H](Cc1ccc(O)cc1)C(=O)N[C@@H](Cc1ccc(O)cc1)C(=O)N[C@H](CCSC)C(N)=O
B8: peptide of SEQ ID NO 127 (peptide)
peptide: HMKYYYM
HELM: PEPTIDE1{[CCCC(=O)[*:2]].H.M.K.Y.Y.Y.[dM].[am]}$$$$V2.0
SMILES: CCCC(=O)N[C@@H](Cc1c[nH]cn1)C(=O)N[C@@H](CCSC)C(=O)N[C@@H](CCCCN)C(=O)N[C@@H](Cc1ccc(O)cc1)C(=O)N[C@@H](Cc1ccc(O)cc1)C(=O)N[C@@H](Cc1ccc(O)cc1)C(=O)N[C@H](CCSC)C(N)=O

Columns and labels:
FPR1 = target: T1, FPR1; experiment: cell-based or functional assay
[1] = target: T2, formyl peptide receptor 2 (FPR2); experiment: cell-based or functional assay

Binder	EC50 for [Ca2+] (FPR1) [µM]	EC50 for [Ca2+] [1] [µM]
B1	> 10	< 0.01
B2	> 10	< 0.01
B3	> 10	< 0.01
B4	> 10	< 0.01
B5	> 10	< 0.01
B6	> 10	< 0.01
B7	> 10	< 0.01
B8	> 10	< 0.01
